B1: PTH: parathyroid hormone used to stimulate prostaglandin E2 production (protein, UniProt P01270 32-115, looked up)
Parathyroid hormone: SVSEIQLMHNLGKHLNSMERVEWLRKKLQDVHNFVALGAPLAPRDAGSQRPRKKEDNVLVESHEKSLGEADKADVNVLTKAKSQ
modifications: Parathyroid hormone
notes: parathyroid hormone used to stimulate prostaglandin E2 production

How the values were obtained:
Tolerability = conditions: in vivo
[1] = system: prostaglandin E2 production in mouse calvariae; test: Inhibitory effect on prostaglandin E2 production stimulated by PTH in organ cultures of mouse calvariae; type: cell-based
Description: Organ cultures of mouse calvariae are first prepared according to the principles of U. L. Ivey, D. R. Wright, A. H. Tashjian, J. Clin. Invest. 58:1327 (1976) as follows:
Frontal and parietal bones are dissected from neonatal (5 to 6-day-old) mice (strain CD-1), split along the sagittal suture, and cultured in 2 ml of BGJ-medium containing 1 mg/ml bovine serum albumin, penicillin and streptomycin in 35 mm plastic tissue culture wells. […]
The cells are cultured for another 48 hours. During the entire culture period, the multi-well dishes are shaken on a rocker platform (15 oscillations/min) in a humidified atmosphere of 5% CO2 in air at 37° C. The calvaria-conditioned medium is harvested and placed at 4° C.
An aliquot of the medium is then assayed for prostaglandin E2 using a standard radioimmunossay. Prostaglandin E2 levels are reduced.

| Molecule | tolerated dose (Tolerability) [mg] | PGE2 synthesis ([1]; PTH 10^-7 M alone (so in the source)) [pg/mL] | PGE2 synthesis ([1]; PTH 10^-10 M alone) [pg/mL] |
| --- | --- | --- | --- |
| C[C@@H](O)[C@@H]1NC(=O)[C@H](CCCCN)NC(=O)[C@@H](Cc2c[nH]c3ccccc23)NC(=O)[C@H](Cc2ccccc2)NC(=O)[C@@H](NC(=O)[C@H](N)Cc2ccccc2)CSSC[C@@H](C(=O)N[C@H](CO)[C@@H](C)O)NC1=O [Compound IVa] | ≥ 1 | – | – |
| B1 | – | 340 | 50 |

Reference: patent US5145837A, “Treatment of arthritis” (Sandoz Ltd., priority 1988, dated 1992)
